T1: ICP8Δ60 (HSV-1 ICP8 lacking the 60-aa C-terminal tail) (herpes simplex virus type 1 (HSV-1), …, UniProt P17470 1-1136, in the MST only: labelled on amines with the red dye NT-647-NHS (RED-NHS Monolith kit); unlabelled in the thermal shift assays)
T1 construct: the tail is printed as residues 1136-1196; source: Sf9 insect cells infected with recombinant baculovirus (pFastBac1-ICP8Δ60), purified (SP-Sepharose cation exchange)
T1 sequence: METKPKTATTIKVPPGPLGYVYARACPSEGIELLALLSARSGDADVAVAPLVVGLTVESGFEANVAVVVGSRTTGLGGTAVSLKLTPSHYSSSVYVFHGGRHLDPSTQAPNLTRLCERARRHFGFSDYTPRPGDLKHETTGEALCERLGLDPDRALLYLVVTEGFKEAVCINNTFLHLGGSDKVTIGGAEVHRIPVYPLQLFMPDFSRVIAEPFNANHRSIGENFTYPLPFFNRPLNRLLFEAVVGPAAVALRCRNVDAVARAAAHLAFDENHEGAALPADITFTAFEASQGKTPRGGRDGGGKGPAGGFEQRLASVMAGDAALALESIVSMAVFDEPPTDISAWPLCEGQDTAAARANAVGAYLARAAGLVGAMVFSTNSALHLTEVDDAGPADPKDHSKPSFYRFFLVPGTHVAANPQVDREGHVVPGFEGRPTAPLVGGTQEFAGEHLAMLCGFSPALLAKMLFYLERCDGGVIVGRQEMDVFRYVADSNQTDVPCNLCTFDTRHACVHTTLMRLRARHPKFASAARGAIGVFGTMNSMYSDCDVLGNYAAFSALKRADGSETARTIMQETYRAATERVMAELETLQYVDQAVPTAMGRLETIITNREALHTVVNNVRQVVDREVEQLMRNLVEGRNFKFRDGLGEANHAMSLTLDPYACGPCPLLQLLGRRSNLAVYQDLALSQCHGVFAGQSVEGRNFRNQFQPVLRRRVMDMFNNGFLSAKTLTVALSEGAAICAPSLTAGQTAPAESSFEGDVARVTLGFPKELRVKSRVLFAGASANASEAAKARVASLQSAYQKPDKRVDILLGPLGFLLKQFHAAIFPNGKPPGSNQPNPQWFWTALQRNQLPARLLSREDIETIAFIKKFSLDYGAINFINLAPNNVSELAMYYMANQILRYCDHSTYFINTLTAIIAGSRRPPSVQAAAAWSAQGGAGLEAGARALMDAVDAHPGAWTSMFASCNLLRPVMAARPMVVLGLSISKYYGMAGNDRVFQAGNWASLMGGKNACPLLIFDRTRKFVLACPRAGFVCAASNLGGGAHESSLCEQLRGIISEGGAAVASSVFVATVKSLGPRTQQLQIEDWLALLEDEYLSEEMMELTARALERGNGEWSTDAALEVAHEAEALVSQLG

B1: Cy5-25-mer poly(dT) (ssDNA)
DNA: TTTTTTTTTTTTTTTTTTTTTTTTT
B2: ICP8-CTD Δ60 (domain or fragment)
chain: AASNLGGGAHESSLCEQLRGIISEGGAAVASSVFVATVKSLGPRTQQLQIEDWLALLEDEYLSEEMMELTARALERGNGEWSTDAALEVAHEAEALVSQLG
notes: ICP8 (UL29) of HSV-1, C-terminal domain (begins at 1036) with the last 60 residues deleted; source: E. coli BL21 (pET28a-His-ICP8-CTDΔ60), purified (Talon cobalt beads, Superose 12 gel filtration)
B3: ICP8 WT, full length (natural protein)
chain: METKPKTATTIKVPPGPLGYVYARACPSEGIELLALLSARSGDADVAVAPLVVGLTVESGFEANVAVVVGSRTTGLGGTAVSLKLTPSHYSSSVYVFHGGRHLDPSTQAPNLTRLCERARRHFGFSDYTPRPGDLKHETTGEALCERLGLDPDRALLYLVVTEGFKEAVCINNTFLHLGGSDKVTIGGAEVHRIPVYPLQLFMPDFSRVIAEPFNANHRSIGENFTYPLPFFNRPLNRLLFEAVVGPAAVALRCRNVDAVARAAAHLAFDENHEGAALPADITFTAFEASQGKTPRGGRDGGGKGPAGGFEQRLASVMAGDAALALESIVSMAVFDEPPTDISAWPLCEGQDTAAARANAVGAYLARAAGLVGAMVFSTNSALHLTEVDDAGPADPKDHSKPSFYRFFLVPGTHVAANPQVDREGHVVPGFEGRPTAPLVGGTQEFAGEHLAMLCGFSPALLAKMLFYLERCDGGVIVGRQEMDVFRYVADSNQTDVPCNLCTFDTRHACVHTTLMRLRARHPKFASAARGAIGVFGTMNSMYSDCDVLGNYAAFSALKRADGSETARTIMQETYRAATERVMAELETLQYVDQAVPTAMGRLETIITNREALHTVVNNVRQVVDREVEQLMRNLVEGRNFKFRDGLGEANHAMSLTLDPYACGPCPLLQLLGRRSNLAVYQDLALSQCHGVFAGQSVEGRNFRNQFQPVLRRRVMDMFNNGFLSAKTLTVALSEGAAICAPSLTAGQTAPAESSFEGDVARVTLGFPKELRVKSRVLFAGASANASEAAKARVASLQSAYQKPDKRVDILLGPLGFLLKQFHAAIFPNGKPPGSNQPNPQWFWTALQRNQLPARLLSREDIETIAFIKKFSLDYGAINFINLAPNNVSELAMYYMANQILRYCDHSTYFINTLTAIIAGSRRPPSVQAAAAWSAQGGAGLEAGARALMDAVDAHPGAWTSMFASCNLLRPVMAARPMVVLGLSISKYYGMAGNDRVFQAGNWASLMGGKNACPLLIFDRTRKFVLACPRAGFVCAASNLGGGAHESSLCEQLRGIISEGGAAVASSVFVATVKSLGPRTQQLQIEDWLALLEDEYLSEEMMELTARALERGNGEWSTDAALEVAHEAEALVSQLGNAGEVFNFGDFGCEDDNATPFGGPGAPGPAFAGRKRAFHGDDPFGEGPPDKKGDLTLDML
notes: also called WT ICP8; full-length ICP8
B4: Cy5-50-mer dT (ssDNA)
DNA: TTTTTTTTTTTTTTTTTTTTTTTTTTTTTTTTTTTTTTTTTTTTTTTTTT
B5: ICP8-CTD WT (His-tagged entire C-terminal domain of ICP8, residues 1036-1196) (domain or fragment)
chain: AASNLGGGAHESSLCEQLRGIISEGGAAVASSVFVATVKSLGPRTQQLQIEDWLALLEDEYLSEEMMELTARALERGNGEWSTDAALEVAHEAEALVSQLGNAGEVFNFGDFGCEDDNATPFGGPGAPGPAFAGRKRAFHGDDPFGEGPPDKKGDLTLDML
notes: ICP8 (UL29) of HSV-1, entire C-terminal domain with the helical bundle and the intact 60-aa disordered tail, residues 1036-1196; The methods give no limits for the pET28a construct and give aa 1049-1135 for the Flag-tagged CTD of the cell experiments; also called WT ICP8-CTD; WT CTD; source: E. coli BL21 (pET28a-His-ICP8-CTD, codon optimised), purified (Talon cobalt beads, Superose 12 gel …)
B6: ICP8-CTD D1087A (domain or fragment)
chain: AASNLGGGAHESSLCEQLRGIISEGGAAVASSVFVATVKSLGPRTQQLQIEAWLALLEDEYLSEEMMELTARALERGNGEWSTDAALEVAHEAEALVSQLGNAGEVFNFGDFGCEDDNATPFGGPGAPGPAFAGRKRAFHGDDPFGEGPPDKKGDLTLDML
notes: ICP8 (UL29) of HSV-1, C-terminal domain, residues 1036-1196, with D1087A; source: E. coli BL21 (pET28a-His-ICP8-CTD mutant), purified (Talon cobalt beads, Superose 12 gel filtration)
B7: ICP8-CTD FNF→AAA (domain or fragment)
chain: AASNLGGGAHESSLCEQLRGIISEGGAAVASSVFVATVKSLGPRTQQLQIEDWLALLEDEYLSEEMMELTARALERGNGEWSTDAALEVAHEAEALVSQLGNAGEVAAAGDFGCEDDNATPFGGPGAPGPAFAGRKRAFHGDDPFGEGPPDKKGDLTLDML
notes: ICP8 (UL29) of HSV-1, C-terminal domain, residues 1036-1196, with the triple alanine substitution of F1142, N1143 and F1144; the text has 1142-1144; also called FNF→AAA CTD; source: E. coli BL21 (pET28a-His-ICP8-CTD mutant), purified (Talon cobalt beads, Superose 12 gel filtration)

How the values were obtained:
ICP8Δ60 = ICP8Δ60 (Herpes simplex virus type 1 (KOS), UniProt P17470 1-1136); experiment: MST; 20 nM DNA; EMSA: 20 mM HEPES pH 7.5, 150 mM KCl, 2 mM EDTA, 1 mM TCEP, 6% Ficoll, on ice 30 min, gel at 4 °C; thermal shift: 20 mM Na phosphate (SI: HEPES) pH 7.6, 100 mM; conditions: protein: recombinant; tags: none stated; label: 5' Cy5; single strand
[1] = biological target: T1, ICP8Δ60 (HSV-1 ICP8 lacking the 60-aa …); experiment: label-free thermal shift (nanoDSF, Tycho NT.6); as a1 (1:10 M ratio), with 1.2 M excess of a 19-mer ssDNA added to the preformed binary complex; ΔTi counted against apo ICP8Δ60 without ssDNA (ssDNA alone gives 1.1 °C); conditions: both partners purified
[2] = biological target: T1, ICP8Δ60 (HSV-1 ICP8 lacking the 60-aa …); experiment: MST; ICP8Δ60 labelled with NT-647-NHS at 20 nM or 50 nM, unlabelled CTD fragment titrated from low nanomolar to high micromolar; 20 mM sodium phosphate pH 7.5, 100 mM NaCl, 0.1 mM EDTA, 2 mM DTT, 5 mM MgCl2, 0.05% Tween 20; 30 min at RT; one site binding model; conditions: both partners purified
[3] = biological target: T1, ICP8Δ60 (HSV-1 ICP8 lacking the 60-aa …); experiment: label-free thermal shift (nanoDSF, Tycho NT.6); 5 μM ICP8Δ60 with a molar excess of CTD fragment (1:10 M ratio), no ssDNA; shift of the inflection temperature Ti of ICP8Δ60; 20 mM Na phosphate pH 7.6, 100 mM NaCl, 100 μM EDTA, 1 mM TCEP, 10% glycerol, 5 mM MgCl2; heated at 30 °C/min; conditions: both partners purified
[4] = biological target: the molecule itself; experiment: negative-stain electron microscopy of filament formation; 0.5 μM protein overnight at 4 °C in 20 mM HEPES-KOH pH 7.5, 100 mM NaCl, 10% glycerol, 1 mM DTT, 0.1 mM EDTA, 5 mM MgCl2; uranyl acetate stain; no DNA
ICP8 WT = ICP8 WT (Herpes simplex virus type 1 (KOS), UniProt P17470 1-1196); experiment: EMSA; cooperative supershifted band present; EMSA: 20 mM HEPES pH 7.5, 150 mM KCl, 2 mM EDTA, 1 mM TCEP, 6% Ficoll, on ice 30 min, gel at 4 °C; thermal shift: 20 mM Na phosphate (SI: HEPES) pH 7.6, 100 mM; conditions: protein: recombinant; tags: none stated; chain copies: 4; label: Cy5; single strand
[5] = biological target: T1, ICP8Δ60 (HSV-1 ICP8 lacking the 60-aa …); experiment: label-free thermal shift (nanoDSF), dose series refitted with MoltenProt; 5 μM ICP8Δ60 preincubated with 10 to 100 μM CTD fragment (1:2 to 1:20 M ratio) for 3 h at room temperature; two-state reversible unfolding model; conditions: both partners purified

Row | Binder | ΔTi of ICP8Δ60 (Ti complex - Ti apo), + ssDNA [1] [°C] | Kd [2] [µM] | ΔTi of ICP8Δ60 (Ti complex - Ti apo), - ssDNA [3] [°C] | other results
1 | B1 |  |  |  | Kd (ICP8Δ60): 70 nM
2 | B2 | 2 | 53.5 | 0.7 | 
3 | B3 |  |  |  | binding result [4]: binds
4 | B4 |  |  |  | binding result (ICP8 WT): binds
5 | B5 | 2.9 | 0.147 | 2.1 | Ti of ICP8Δ60 at 1:2 ratio (ICP8Δ60 alone 51.5) [5]: 52.1 ± 0.1 °C; Ti of ICP8Δ60 at 1:5 ratio (ICP8Δ60 alone 51.5) [5]: 52.7 ± 0.1 °C; Ti of ICP8Δ60 at 1:10 ratio (ICP8Δ60 alone 51.5) [5]: 53.3 ± 0.1 °C; Ti of ICP8Δ60 at 1:20 ratio (ICP8Δ60 alone 51.5) [5]: 53.9 ± 0.1 °C
6 | B6 | 2.4 | 1.55 | 1 | 
7 | B7 | 1.9 | 21.1 | 0.6 | 
